Source: US20190218296A1 (APEXIGEN, published 2019)
Residue numbers refer to the chain shown, from its start. Values belong to the binder of their own block, whether it stands above or below them.

Legend:
human PD-L1 on cells [1] = target: T1, human PD-L1 on cells (human, UniProt Q9NZQ7 19-290); assay: flow cytometry on CD4 T cells activated with anti-CD3; MFI; column head prints only EC50, unit taken from the axis Antibody Concentration (nM)
T1 construct: whole, on cells; also called HEK-PD-L1 cells; PD-L1-expressing HEK 293 cells
T1 sequence (Q9NZQ7 19-290): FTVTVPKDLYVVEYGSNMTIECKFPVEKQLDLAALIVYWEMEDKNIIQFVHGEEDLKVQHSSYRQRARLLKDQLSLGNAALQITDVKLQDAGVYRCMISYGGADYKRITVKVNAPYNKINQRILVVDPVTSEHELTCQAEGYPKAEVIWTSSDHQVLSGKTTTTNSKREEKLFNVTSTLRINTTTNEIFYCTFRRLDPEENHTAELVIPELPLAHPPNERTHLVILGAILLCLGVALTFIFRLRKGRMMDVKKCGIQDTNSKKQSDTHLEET

[2] = target: T2, recombinant cynomolgus monkey PD-L1 (cynomolgus monkey, UniProt G7PSE7 19-238); assay: direct ELISA on plate-coated recombinant cynomolgus monkey PD-L1; anti-human Fc-HRP, TMB, OD 650 nm
T2 construct: also called cynomolgus macaque PD-L1
T2 sequence (G7PSE7 entry or part of it limits assumed): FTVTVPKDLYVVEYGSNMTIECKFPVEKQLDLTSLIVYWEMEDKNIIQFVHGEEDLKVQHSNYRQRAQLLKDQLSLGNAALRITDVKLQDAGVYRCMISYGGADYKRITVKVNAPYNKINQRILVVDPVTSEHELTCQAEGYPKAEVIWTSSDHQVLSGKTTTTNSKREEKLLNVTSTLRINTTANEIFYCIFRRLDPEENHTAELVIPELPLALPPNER
Procedure: (§1) To assess specificity of the selected clones, a direct ELISA for human and cynomolgus monkey PD-L1 was performed. ELISA plates were coated with recombinant human or cynomolgus monkey PD-L1. […] Serial dilutions of chimeric anti-PD-L1 antibodies were added, and a secondary HRP-conjugated, anti-human Fc-specific antibody was added. After washing, TMB substrate was added and plates were read at OD 650 nm.

[3] = target: T3, human PD-L1-his (Sino Biologics) (human, UniProt Q9NZQ7 19-238); assay: competition ELISA: human PD-L1-his coated at 1 µg/ml, antibody dilutions, then human PD-1-mouse-Fc at 1 µg/ml, anti-mouse IgG-HRP, OD 650 nm
T3 construct: Bought from Sino Biologics; not shown: his tag
T3 sequence (Q9NZQ7 19-238 limits assumed): as the sequence (G7PSE7 entry or part of it limits assumed) above, with T33A, S34A, N62S, Q68R, R82Q, L173F, A185T, I192T, L215H counted along it
Procedure: Plates were coated with 100 μl of 1 μg/ml human PD-L1-his (Sino Biologics, Beijing, China) in carbonate-bicarbonate buffer overnight. After washing, plates were blocked with PBS 0.05% Tween-20 for 1 hour, and serial dilutions of anti-PD-L1 human chimeric antibody or IgG1 isotype control antibody was added. […] After washing, goat anti-mouse IgG (H+L)-HRP antibody (Jackson ImmunoResearch West Grove, Pa.) and plates were further incubated for 1 hour. After washing, TMB substrate (SurModics, Eden Prairie, Minn.) was added. The reaction was stopped using stop solution (SurModics) and plates were read at OD=650 nanometer.

recombinant human PD-L1 [4] = target: T4, recombinant human PD-L1 (human, UniProt Q9NZQ7 19-238, limits assumed); assay: ELISA on human PD-L1, OD 650 nm
T4 construct: also called PD-L1 protein
T4 sequence (Q9NZQ7 19-238 limits assumed): as the sequence (G7PSE7 entry or part of it limits assumed) above, with T33A, S34A, N62S, Q68R, R82Q, L173F, A185T, I192T, L215H counted along it

human PD-L1 on cells [5] = target: T1, human PD-L1 on cells; assay: flow cytometry on activated CD4 T cells, saturation fit on a linear axis
human PD-L1 on cells [6] = target: T1, human PD-L1 on cells; assay: flow cytometry on monocyte-derived dendritic cells, MFI
recombinant human PD-L1 [7] = target: T4, recombinant human PD-L1; assay: direct ELISA on plate-coated recombinant human PD-L1; anti-human Fc-HRP, TMB, OD 650 nm
Procedure: as §1

human PD-L1 on cells [8] = target: T1, human PD-L1 on cells; assay: flow cytometry on monocyte-derived dendritic cells, saturation fit on a linear axis
human PD-L1 on cells [9] = target: T1, human PD-L1 on cells; assay: flow cytometry on monocyte-derived dendritic cells; PE anti-human Fc, MFI
Procedure: The chimeric PD-L1 antibodies were further assessed for their ability to bind to human myeloid-derived dendritic cells. CD14 monocytes were isolated from PBMC using directly conjugated magnetic beads (Miltenyi) and cultured for 7 days in the presence of GM-CSF (100 ng/ml) and IL-4 (50 ng/ml) (Peprotech) to generate myeloid dendritic cells (mDC). mDC were added to 96-well plates (100,000 cells/well) and serial dilution of anti-PD-L1 antibodies or IgG1 isotype control antibody was added in duplicates and plates were incubated for 30 min on ice. After washing, a PE-conjugated donkey anti-human Fc specific antibody (Jackson Immunoresearch, 1:200 dilution) was added and plates were further incubated for 15 minutes on ice. After washing, cells were analyzed using a MACS quant flow cytometer.

human PD-L1 on cells [10] = target: T1, human PD-L1 on cells; assay: flow cytometry on human PD-L1 transfected HEK 293 cells; PE anti-human Fc, MFI
Procedure: Stable human PD-L1 transfected HEK 293 cells (Crown Bio, San Diego, Calif.) were added to 96-well plates (100,000 cells/well) and serial dilution of anti-PD-L1 antibodies or IgG1 isotype control antibody was added in duplicates and plates were incubated for 30 minutes on ice. After washing, a PE-conjugated donkey anti-human Fc specific antibody (Jackson Immunoresearch, West Grove, Pa. 1:200 dilution) was added and plates were further incubated for 15 minutes on ice. After washing, cells were analyzed using a MACS quant flow cytometer.

human PD-L1 on cells [11] = target: T1, human PD-L1 on cells; assay: flow cytometry on activated CD4 T cells, MFI
human PD-L1 on cells [12] = target: T1, human PD-L1 on cells; assay: flow cytometry on HEK-PD-L1 cells; PE anti-human Fc, MFI
human PD-L1 on cells [13] = target: T1, human PD-L1 on cells; assay: flow cytometry on HEK PD-L1 cells, MFI
human PD-L1 on cells [14] = target: T1, human PD-L1 on cells; assay: flow cytometry on HEK PD-L1 cells, saturation fit on a linear axis
human PD-L1 on cells [15] = target: T1, human PD-L1 on cells; assay: flow cytometry on HEK-PD-L1 cells, saturation fit on a linear axis; column head prints only Kd, unit taken from the axis Ab (nM)
recombinant human PD-L1 [16] = target: T4, recombinant human PD-L1; assay: competition ELISA: PD-L1 coated, serial dilutions of the antibody, then biotinylated Atezolizumab at 1 µg/ml, streptavidin-HRP, OD 650 nm

B2: chimeric anti-PD-L1 antibody 15E9 (antibody, human IgG1, V domains shown)
VH: QSVEESGGRLVTPGTPLTLTCTVSGFDISNYWMSWVRQAPGKGLEYIGIISTGGNTWYASWVKGRFTISKTSTTVDLKMTSLTTEDTATYFCVRVVIYGGTTSSFNLWGPGTLVTVSS
VL: QVLTQTASPVSAAVGGTVTINCQSSQNVYNKIRLSWFQQKSGQPPKELIYAASSLASGVPSRFKGSGSGTEFTLTISDLECDDAATYYCQGGYSGPIYAFGGGTEVVVK
EC50 (recombinant human PD-L1 [4]): 0.0138 µg/mL
Kd (human PD-L1 on cells [5]): 0.026 nM
EC50 (human PD-L1 on cells [6]): 0.9 nM
EC50 (read off the curve) (recombinant human PD-L1 [7]): ~4 ng/mL
binding result [2]: no binding (tested: 1000 ng/ml)
Kd (human PD-L1 on cells [8]): 0.42 nM
EC50 (human PD-L1 on cells [9]): 1.1 nM
EC50 (human PD-L1 on cells [10]): 0.58 nM
EC50 (human PD-L1 on cells [11]): 0.756 nM

B4: chimeric anti-PD-L1 antibody 23D12 (antibody, human IgG1, V domains shown)
VH: QSVEESGGRLVTPGTPLTLTCTVSGFSLSNYVMGWVRQAPGKGLEYIGIISNSDNTYYATWATGRFTISKTSTTVDLKMTSLTTEDTATYFCARVDTYYNDFNLWGPGTLVTVSS
VL: QVLTQTPSSVEAAVGGTVTIKCQASEDIERYLAWYQQKPGQPPKQLIYDASKLASGVSSRFKGSGSGTEFTLTISGVQCDDAATYYCQHGYIYSSGNPFGGGTEVVVK
EC50 (human PD-L1 on cells [1]): 1.3 nM
EC50 (read off the curve) (recombinant human PD-L1 [7]): ~7 ng/mL
EC50 (read off the curve) [2]: ~6 ng/mL
EC50 (human PD-L1 on cells [9]): 1.7 nM

B5: h9A9-HZD1 (antibody, V domains shown)
VH: EVQLVESGGGLVQPGGSLRLSCAASGIDLSGYWMSWVRQAPGKGLEWVGIVDNDGSAYYASWVNGRFTISRDNSKNTLYLQMNSLRAEDTAVYYCARQSGDWTFDLWGQGTLVTVSS
VL: DIQMTQSPSTLSASVGDRVTITCQASQSIGRWLSWYQQKPGKAPKLLIYQASKLASGVPSRFSGSGSGTEFTLTISSLQPDDFATYYCQNNYDIIAYGNAFGGGTKVEIK
notes: also called humanized 9A9 HZD1
EC50 (recombinant human PD-L1 [4]): 0.0159 µg/mL

B6: h9A9-HZD2 (antibody, V domains shown)
VH: B5 VH with I27F, L29V
VL: B5 VL
notes: also called humanized 9A9 HZD2
EC50 (recombinant human PD-L1 [4]): 0.0126 µg/mL

B8: h51D5_HZD1 (antibody, V domains shown)
VH: EVQLVESGGGLVQPGGSLRLSCAASGFSLSSYWMSWVRRAPGKGLEWVGYINGGSGNPYYASWAKGRFTISRDNSKNTLYLQMNSLRAEDTAVYYCARGGESDDYVYGRYGLDPWGQGTLVTVSS
VL: DIQMTQSPSTLSASVGDRVTITCQASQSISSWLSWYQQKPGKAPKLLIYDASKLASGVPSRFSGSGSGTEFTLTISSLQPDDFATYYCQQDYSSYNVDNTFGGGTKVEIK
notes: also called humanized 51D5 HZD1
EC50 (recombinant human PD-L1 [4]): 0.0156 µg/mL

B9: h51D5_HZD2 (antibody, V domains shown)
VH: B8 VH with R39Q
VL: B8 VL
notes: also called humanized 51D5 HZD2
EC50 (recombinant human PD-L1 [4]): 0.0169 µg/mL

B10: h15E9_HZD1 (antibody, V domains shown)
VH: EVQLVESGGGLVQPGGSLRLSCAASGFDISNYWMSWVRQAPGKGLEWVGIISTGGNTWYASWVKGRFTISRDNSKNTLYLQMNSLRAEDTAVYYCARVVIYGGTTSSFNLWGQGTLVTVSS
VL: DIQMTQSPSSLSASVGDRVTITCQSSQNVYNKIRLSWYQQKPGKAPKELIYAASSLASGVPSRFSGSGSGTEFTLTISSLQPEDFATYYCQGGYSGPIYAFGGGTKVEIK
notes: also called humanized 15E9 HZD1
EC50 (recombinant human PD-L1 [4]): 0.267 µg/mL

Continued, values first:

EC50 (human PD-L1 on cells [1]): 0.75 nM
binding result [2]: no binding (tested: 1000 ng/ml)
IC50 (read off the curve) [3]: ~0.02 µg/mL
B1: chimeric anti-PD-L1 antibody 27H2 (antibody, human IgG1, V domains shown)
VH: QSLEESGGDLVKPGASLTLTCTASGFSFSSGDYMCWVRQAPGKGLEGIACIYGGSSGSTYYANWAKGRFTISKTSSTTVTLQMTSLAAADTATYFCARDFRDVGYGYASFRLWGPGILVTVSS
VL: DIVMTQTPASVSEPVGGTVTIKCQASQSISSWLSWYQQKPGQPPKLLIYGASNLESGVSSRFKGSGSGTEYTLTISDLECADAATYYCQSNYGSSSSSLNAFGGGTEVVVK

EC50 (read off the curve) (human PD-L1 on cells [12]): ~1 nM
EC50 (human PD-L1 on cells [13]): 0.32 nM
EC50 (recombinant human PD-L1 [4]): 0.0117 µg/mL
Kd (human PD-L1 on cells [5]): 0.025 nM
Kd (human PD-L1 on cells [14]): 0.16 nM
Kd (human PD-L1 on cells [15]): 0.91 nM
EC50 (human PD-L1 on cells [6]): 1.12 nM
Kd (human PD-L1 on cells [8]): 0.5 nM
IC50 (read off the curve) [3]: ~0.2 µg/mL
EC50 (human PD-L1 on cells [11]): 1.03 nM
B3: chimeric anti-PD-L1 antibody 51D5 (antibody, human IgG1, V domains shown)
VH: QSVEESGGRLVTPGTPLTLTCIVSGFSLSSYWMSWVRRAPGKGLEWIGYINGGSGNPYYASWAKGRFTISKTSTTVDLKITSPTTEDTATYFCARGGESDDYVYGRYGLDPWGPGTLVTVSS
VL: AYDMTQTPASVSEPVGGTVTIKCQASQSISSWLSWYQQKPGQPPKLLIYDASKLASGVPSRFSGSGSGTQFTLTISDLECDDAATYYCQQDYSSYNVDNTFGGGTEVVVK
notes: also called chimeric 51D5; c51D5

binding result (recombinant human PD-L1 [16]): binds
B7: chimeric anti-PD-L1 antibody 11B11 (antibody, human IgG1, V domains shown)
VH: QSVEESGGRLVTPGGTLTLTCTASGFSLSNYTMAWVRQAAGKGLEWIGYINTGGSPYYASWAKGRFTISRSSTTVDLKMTSLTTEDTATYFCARNVDGAWNYLNLWGPGTLVTVSS
VL: AYDMTQTPASVEVVVGGTVTIKCQASETINTYLSWYQQKPGQRPRLLIYAASNLASGVPSRFSGSGSGTEFTLTISGVQCADAATYYCQQGINSNVGNTFGGGTEVVVK

EC50 (recombinant human PD-L1 [4]): 1.62 µg/mL
B11: h15E9_HZD2 (antibody, V domains shown)
VH: B10 VH
VL: B10 VL with E48R
notes: also called humanized 15E9 HZD2

EC50 (human PD-L1 on cells [1]): 7.7 nM
EC50 (read off the curve) (recombinant human PD-L1 [7]): ~6 ng/mL
EC50 (read off the curve) [2]: ~5 ng/mL
EC50 (human PD-L1 on cells [9]): 1.6 nM
B12: chimeric anti-PD-L1 antibody 43G2 (antibody, human IgG1, V domains shown)
VH: QSVEESGGRLVTPGTPLTLTCTVSGFSLSSYAMGWVRQAPGEGLEYIGFIDTHGSAYYATWAKGRFTISRTSTTVDLKITSPTTEDTATYFCARNVWTNAGYFNLWGPGTLVTVSS
VL: DVVMTQTPSSVSAAVGGTVTIKCQASQNIYTNLAWYQQKPGQPPKLLIYSASTLASGVPSRFKGSGSGTQFTLTISDLECADAATYYCQTYGALIINGGAFGGGTEVVVK
